Reference: patent US12331106B2, “Anti-angiopoietin-2 antibodies that induce Tie2 activation” (Institute for Basic Science, priority 2018, dated 2025)
Changes are numbered by the printed parent chain.

T1: hAng2 (Homo sapiens, UniProt O15123)
T1 sequence (O15123 19-496): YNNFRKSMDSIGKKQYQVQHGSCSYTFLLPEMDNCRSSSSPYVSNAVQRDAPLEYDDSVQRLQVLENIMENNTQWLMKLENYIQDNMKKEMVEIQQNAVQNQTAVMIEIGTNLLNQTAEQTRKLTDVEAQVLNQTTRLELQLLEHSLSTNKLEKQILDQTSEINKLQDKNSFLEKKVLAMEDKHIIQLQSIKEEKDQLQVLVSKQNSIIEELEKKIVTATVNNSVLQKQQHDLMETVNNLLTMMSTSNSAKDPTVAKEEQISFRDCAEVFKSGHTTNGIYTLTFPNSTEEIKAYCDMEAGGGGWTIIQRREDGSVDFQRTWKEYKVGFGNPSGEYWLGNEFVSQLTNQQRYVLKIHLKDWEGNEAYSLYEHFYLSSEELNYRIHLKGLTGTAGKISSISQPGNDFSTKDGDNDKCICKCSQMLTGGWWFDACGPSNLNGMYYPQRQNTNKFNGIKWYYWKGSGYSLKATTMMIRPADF

B1: 2C8H11G4: human IgG4 class antibody of 2C8H11 (antibody, V domains shown)
VH: QVQLVQSGAEVKKPGASVKVSCKASGYTFTSYWMHWVRQAPGQGLEWMGMIDPSDSETRLNQKFKDRVTMTRDTSTSTVYMELSSLRSEDTAVYYCARRFYYGSDWYFDVWGQGTLVTVSS
VL: DIQLTQSPSFLSASVGDRVTITCKASQDVGTAVAWYQQKPGKAPKLLIYWASTRHTGVPSRFSGSGSGTEFTLTISSLQPEDFATYYCQQYSSYPLTFGQGTKVEIK
B2: 4B9H11G4: human IgG4 class antibody of 4B9H11 (antibody, V domains shown)
VH: QVQLVESGGGLVKPGGSLRLSCAASGFTFSDYYMYWIRQAPGKGLEWVSTISVGGSFTYYPDSVKGRFTISRDNAKNSLYLQMNSLRAEDTAVYYCARDWGLRPWFVYWGQGTLVTVSS
VL: B1 VL with L4M, F10S, G30S, E70D, Y91H, S92Y, Y94T, L96P
B3: 2C8H22: humanized anti-Ang2 antibody from mouse 2C8; VH SEQ ID NO: 79, VL SEQ ID NO: 80 (antibody, V domains shown)
VH: B1 VH with T28S, M48I
VL: B1 VL with T20S, S60D
modifications: VH; VL
B4: 2C8H43: humanized anti-Ang2 antibody from mouse 2C8; VH SEQ ID NO: 107, VL SEQ ID NO: 108 (antibody, V domains shown)
VH: B1 VH with T28S, R38K, M48I, R67K, V68A, T69S
VL: B1 VL with T20S, S60D, T85D, Y87F
modifications: VH; VL
B5: 2C8H51: humanized anti-Ang2 antibody from mouse 2C8; VH SEQ ID NO: 71, VL SEQ ID NO: 72 (antibody, V domains shown)
VH: B1 VH with T28S, R38K, M48I, R67K, V68A, T69S, M70L, R72V
VL: B1 VL
modifications: VH; VL
B6: 2C8H42: humanized anti-Ang2 antibody from mouse 2C8; VH SEQ ID NO: 87, VL SEQ ID NO: 88 (antibody, V domains shown)
VH: B1 VH with T28S, R38K, M48I, R67K, V68A, T69S
VL: B1 VL with T20S, S60D
modifications: VH; VL
B7: 2C8H32: humanized anti-Ang2 antibody from mouse 2C8; VH SEQ ID NO: 83, VL SEQ ID NO: 84 (antibody, V domains shown)
VH: B1 VH with T28S, M48I, R67K, V68A, T69S
VL: B1 VL with T20S, S60D
modifications: VH; VL
B8: 2C8H23: humanized anti-Ang2 antibody from mouse 2C8; VH SEQ ID NO: 99, VL SEQ ID NO: 100 (antibody, V domains shown)
VH: B1 VH with T28S, M48I
VL: B1 VL with T20S, S60D, T85D, Y87F
modifications: VH; VL
B9: 2C8H21: humanized anti-Ang2 antibody from mouse 2C8; VH SEQ ID NO: 59, VL SEQ ID NO: 60 (antibody, V domains shown)
VH: B1 VH with T28S, M48I
VL: B1 VL
modifications: VH; VL
B10: 2C8H53: humanized anti-Ang2 antibody from mouse 2C8; VH SEQ ID NO: 111, VL SEQ ID NO: 112 (antibody, V domains shown)
VH: B1 VH with T28S, R38K, M48I, R67K, V68A, T69S, M70L, R72V
VL: B1 VL with T20S, S60D, T85D, Y87F
modifications: VH; VL
B11: 2C8H12: humanized anti-Ang2 antibody from mouse 2C8; VH SEQ ID NO: 75, VL SEQ ID NO: 76 (antibody, V domains shown)
VH: B1 VH
VL: B1 VL with T20S, S60D
modifications: VH; VL
B12: 2C8H52: humanized anti-Ang2 antibody from mouse 2C8; VH SEQ ID NO: 91, VL SEQ ID NO: 92 (antibody, V domains shown)
VH: B1 VH with T28S, R38K, M48I, R67K, V68A, T69S, M70L, R72V
VL: B1 VL with T20S, S60D
modifications: VH; VL
B13: 2C8H31: humanized anti-Ang2 antibody from mouse 2C8; VH SEQ ID NO: 63, VL SEQ ID NO: 64 (antibody, V domains shown)
VH: B1 VH with T28S, M48I, R67K, V68A, T69S
VL: B1 VL
modifications: VH; VL
B14: 2C8H33: humanized anti-Ang2 antibody from mouse 2C8; VH SEQ ID NO: 103, VL SEQ ID NO: 104 (antibody, V domains shown)
VH: B1 VH with T28S, M48I, R67K, V68A, T69S
VL: B1 VL with T20S, S60D, T85D, Y87F
modifications: VH; VL
B15: 2C8H41: humanized anti-Ang2 antibody from mouse 2C8; VH SEQ ID NO: 67, VL SEQ ID NO: 68 (antibody, V domains shown)
VH: B1 VH with T28S, R38K, M48I, R67K, V68A, T69S
VL: B1 VL
modifications: VH; VL
B16: 2C8H13: humanized anti-Ang2 antibody from mouse 2C8; VH SEQ ID NO: 95, VL SEQ ID NO: 96 (antibody, V domains shown)
VH: B1 VH
VL: B1 VL with T20S, S60D, T85D, Y87F
modifications: VH; VL

Molecular target: T1, hAng2
Assay: OCTET affinity of humanized anti-Ang2 antibodies against hAng2
Type: binding
Details: IgG4 class antibodies
Method: The affinity of humanized anti-Ang2 antibody against hAng2 was measured using OCTET® system (ForteBio). Specifically, buffer and samples were measured in total 200 μl/well using Black 96-well plates (96 well F-type black plates, Greiner). The biosensor used for affinity measurements was hydrated for 10 min before measurement with AR2G tip (ForteBio OCTET®). After the hydration, humanized anti-Ang2 antibody was diluted in 10 mM sodium acetate, pH 6.0 buffer at a concentration of 10 μg/ml, fixed on AR2G biosensor, and blocked with 1M ethanolamine. The recombinant hAng2 was diluted to 50, 25, 12.5, 6.25, 3.125, and 0 nM with 1× kinetic buffer, and subjected to association for 300 sec and dissociation for 900 sec. For affinity measurement (KD), association rate (K-on) and dissociation rate (K-off) were analyzed by binding curve (global) and fitted to 1:1 binding model using OCTET® data analysis v9.0.0.10 program.
The affinities of humanized 2C8 antibodies to hAng2 were in Table 15.

Molecule | Kdis [s⁻¹] | Kon [M⁻¹ s⁻¹]
B1 | 4.35e-06 | 415000
B2 | 3.46e-05 | 432000

Same assay, conditions: IgG4 class antibodies; statement in words

Molecule | affinities to hAng2 antigen
B1 | subnanomolar high affinities
B2 | subnanomolar high affinities

Same assay, conditions: OCTET, antibody fixed on AR2G biosensor, hAng2 50-0 nM, 1:1 binding model

Molecule | Kdis [s⁻¹] | Kon [M⁻¹ s⁻¹]
B3 | 6.84e-06 | 59600
B4 | 2.65e-05 | 71100
B5 | 9.61e-06 | 70200
B6 | 3.07e-05 | 80600
B7 | 1.49e-05 | 75700
B8 | 2.28e-05 | 79500
B9 | 1.5e-05 | 111000
B10 | 3.11e-05 | 80900
B11 | 1.33e-05 | 95200
B12 | 1.99e-05 | 81900
B13 | 2.21e-05 | 83200
B14 | 3.99e-06 | 89600
B15 | 1.67e-05 | 67000
B16 | 2.77e-05 | 113000
